Consider one molecule from US20200283523A1 (WUXI BIOLOGICS IRELAND, published 2020).

One test addresses T1, cynomolgus CD19 (cynomolgus monkey, UniProt A0A2K5W8L9 20-557).
T1 construct: whole, on cells; also called monkey CD19; WBP701.CHO-K1.cpro1.FL.C9 cells
T1 sequence: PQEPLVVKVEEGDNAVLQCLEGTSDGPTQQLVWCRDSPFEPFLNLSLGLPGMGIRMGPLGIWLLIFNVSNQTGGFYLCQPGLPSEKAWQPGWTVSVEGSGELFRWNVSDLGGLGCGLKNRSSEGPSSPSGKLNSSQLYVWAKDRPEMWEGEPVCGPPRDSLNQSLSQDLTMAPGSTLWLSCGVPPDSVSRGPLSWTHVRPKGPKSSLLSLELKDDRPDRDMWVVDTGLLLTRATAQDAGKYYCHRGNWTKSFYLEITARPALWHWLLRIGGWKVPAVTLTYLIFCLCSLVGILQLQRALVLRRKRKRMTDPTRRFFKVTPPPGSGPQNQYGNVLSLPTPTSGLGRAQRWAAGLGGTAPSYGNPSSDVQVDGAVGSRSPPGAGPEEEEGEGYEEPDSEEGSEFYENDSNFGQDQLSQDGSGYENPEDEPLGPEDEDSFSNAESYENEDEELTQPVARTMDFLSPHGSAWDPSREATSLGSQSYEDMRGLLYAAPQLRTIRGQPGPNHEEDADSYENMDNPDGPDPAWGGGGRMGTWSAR
Kind of test: flow cytometry on CHO-K1 cells expressing cynomolgus CD19 (WBP701.CHO-K1.cpro1.FL.C9). The method, then:
Binding of the CD3×CD19 bispecific antibody to cynomoglus CD19 target protein expressed on CHOK1 cells was determined by flow cytometry analysis. In brief, cynomoglus CD19 over-expressed stable cell line (WBP701.CHOK1.cPro1.C9, WuXi Biologics) were harvested with trypsin and diluted to 1×10⁶ cells/ml in 1% BSA/1×PBS. 1×10⁵ cells/well (100 ul) were added to each well of a 96-well U-plate (Corning, #3799) and centrifuged at 1500 rpm (Eppendorf, #5810R) for 5 minutes before removing the supernatant. Antibodies serially diluted in 1% BSA/1×PBS were added at 100 µl/well to the pelleted cells and incubated at 4° C. for 1 hour. A non-related hIgG4 antibody was used as an isotype control. […] Pelleted cells were resuspended in 100 ul/well Fluorescence-labeled anti-human IgG Fc antibody (Jackson, #109-115-098) 1:150 diluted in 1% BSA/1×PBS for 30 minutes at 4° C. in the dark. […] After the final wash, cells were resuspended in 80 ul 1% BSA/1×PBS and fluorescence values were measured with a FACS Canto II cytometer (BD Biosciences). The amount of cell surface bound anti-CD19&CD3 bispecific antibody was assessed by measuring the mean fluorescence (MFI). The FACS raw data were analyzed by FlowJo software, wells containing no antibody or secondary antibody only were used to establish background fluorescence. […]

In the next test the target is T2, FcγRIIb (UniProt P31994 46-217, limits assumed).
T2 sequence (looked up): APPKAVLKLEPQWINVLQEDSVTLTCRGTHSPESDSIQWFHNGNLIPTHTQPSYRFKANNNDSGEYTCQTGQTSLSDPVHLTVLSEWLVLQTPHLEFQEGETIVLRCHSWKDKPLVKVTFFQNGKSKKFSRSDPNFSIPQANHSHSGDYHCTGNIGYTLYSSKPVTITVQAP
Kind of test: SPR (Biacore), receptor captured on anti-his chip, antibody injected, steady state fit. The method, then: (§1) Antibody binding affinity to FcγRs was detected using Biacore T200 (or Biacore 8K). Each receptor was captured on an anti-his antibody immobilized CMS sensor chip (GE). Antibodies at different concentrations were injected over the sensor chip at a flow rate of 30 uL/min for an association phase of 60 s, followed by 60 s dissociation. The chip was then regenerated by 10 mM glycine (pH 1.5) after each binding cycle.
(§2) The sensorgrams of blank surface and buffer channel were subtracted from the test sensorgrams. The experimental data was fitted by 1:1 model using Langmiur analysis (for FcγRI) or steady state model (for other receptors). A molecular weight of 150 KDa was used to calculate the molar concentration of antibodies.

The next test concerns the target T3, FcγRIIa (H167) (UniProt P12318 36-218, limits assumed).
T3 sequence (looked up): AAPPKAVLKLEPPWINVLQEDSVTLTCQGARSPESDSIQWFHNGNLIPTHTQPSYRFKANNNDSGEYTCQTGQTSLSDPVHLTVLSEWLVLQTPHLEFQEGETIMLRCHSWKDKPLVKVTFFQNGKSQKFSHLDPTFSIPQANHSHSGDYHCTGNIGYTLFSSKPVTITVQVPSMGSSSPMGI
Described as above. The method, then: as §1, §2

The target of a further test is FcγRIIIb (UniProt O75015 17-200). The description is as above. The method, then:
as §1, §2

Chain of FcγRIIIb (O75015 17-200 limits assumed): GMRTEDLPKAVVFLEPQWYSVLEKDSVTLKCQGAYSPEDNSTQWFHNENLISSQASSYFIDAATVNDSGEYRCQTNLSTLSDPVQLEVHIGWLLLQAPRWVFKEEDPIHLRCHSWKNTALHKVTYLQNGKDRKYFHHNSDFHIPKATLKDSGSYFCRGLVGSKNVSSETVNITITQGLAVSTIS

B1: W3438-T3U4.E17-1.uIgG4.SP (bispecific antibody)
light 1: DIVMTQSPDSLAVSLGERATINCKSSQSLLNSRTRKNYLAWYQQKPGQPPKLLIYWASTRQSGVPDRFSGSGSGTDFTLTISSLQAEDVAVYYCTQSHTLRTFGGGTKVEIKPDIQNPDPAVYQLRDSKSSDKSVCLFTDFDSQTQVSQSKDSDVYITDKCVLDMRSMDFKSNSAVAWSQKSDFACANAFQNSIIPEDTFFPSPESS
heavy 1: QVQLVQSGAEVKKPGSSVKVSCKASGFAFTDYYIHWVRQAPGQGLEWMGWISPGNVNTKYNENFKGRVTITADKSTSTAYMELSSLRSEDTAVYYCARDGYSLYYFDYWGQGTLVTVLEDLKNVFPPEVAVFEPSEAEISHTQKATLVCLATGFYPDHVELSWWVNGKEVHSGVCTDPQPLKEQPALQDSRYALSSRLRVSATFWQNPRNHFRCQVQFYGLSENDEWTQDRAKPVTQIVSAEAWGRYGPPCPPCPAPEFLGGPSVFLFPPKPKDTLMISRTPEVTCVVVDVSQEDPEVQFNWYVDGVEVHNAKTKPREEQFNSTYRVVSVLTVLHQDWLNGKEYKCKVSNKGLPSSIEKTISKAKGQPREPQVYTLPPCQEEMTKNQVSLWCLVKGFYPSDIAVEWESNGQPENNYKTTPPVLDSDGSFFLYSRLTVDKSRWQEGNVFSCSVMHEALHNHYTQKSLSLSLGK
light 2: DIQLTQSPSFLSASVGDRVTITCSASSTVNYMHWYQQKPGKAPKLLIYSTSNLASGVPSRFSGSGSGTEFTLTISSLQPEDFATYYCHQWSSYPYTFGQGTKLEIKRTVAAPSVFIFPPSDEQLKSGTASVVCLLNNFYPREAKVQWKVDNALQSGNSQESVTEQDSKDSTYSLSSTLTLSKADYEKHKVYACEVTHQGLSSPVTKSFNRGEC
heavy 2: QMQLVQSGPEVKKPGTSVKVSCKASGYAFTSYNMYWVRQARGQRLEWIGYIDPYNGDTTYNQKFKGRVTITRDMSTSTAYMELSSLRSEDTAVYYCLTTAYAMDYWGQGTLVTVSSASTKGPSVFPLAPCSRSTSESTAALGCLVKDYFPEPVTVSWNSGALTSGVHTFPAVLQSSGLYSLSSVVTVPSSSLGTKTYTCNVDHKPSNTKVDKRVESKYGPPCPPCPAPEFLGGPSVFLFPPKPKDTLMISRTPEVTCVVVDVSQEDPEVQFNWYVDGVEVHNAKTKPREEQFNSTYRVVSVLTVLHQDWLNGKEYKCKVSNKGLPSSIEKTISKAKGQPREPQVCTLPPSQEEMTKNQVSLSCAVKGFYPSDIAVEWESNGQPENNYKTTPPVLDSDGSFFLVSRLTVDKSRWQEGNVFSCSVMHEALHNHYTQKSLSLSLGK
notes: Bispecific, bivalent: one anti-CD3 arm with TCR constant domains and one native anti-CD19 Fab arm, IgG4 S228P Fc with knobs-into-holes; also called WBP3438; CD3×CD19 bispecific antibody; copies: 1 + 1 + 1 + 1
Take B1: the EC50 in the test with cynomolgus CD19 was determined as 0.026 µM. Moreover, the equilibrium dissociation constant (Kd) is 24.1 µM in the test with FcγRIIb, 20.5 µM with FcγRIIa (H167) and more than 41 µM with FcγRIIIb.
